How the values were obtained:
Type in all cases: cell-based, human
[1] = test system: PECAM-1 (CD31); experiment: Flow cytometry of PECAM-1 expression on HCEC; conditions: CAP37 1 μg/ml
Procedure: Flow cytometry was used to assess the upregulation of PECAM-1 (CD31), and the integrin molecules β1 (CD29), β2 (CD18), β3 (CD61), β4 (CD104), α1 (CD49a), α2 (CD49b), α3 (CD49c), α4 (CD 49d), and αv (CD51). Human corneal epithelial cells were cultured as above and treated with CAP37 (0-2000 ng/ml) for 0-72 hr. A corresponding culture was left untreated at each time point. Following treatment with CAP37, cells were detached with 0.25% trypsin in 1 mM EDTA (pH 7.4, FISHER SCIENTIFIC, Pittsburgh, Pa.), washed twice in PBS and fixed with 0.125% paraformaldehyde (J.T. BAKER, Phillipsburg, N.J.) overnight at 4° C. The cells were washed in PBS and then incubated in 0.5% normal goat serum and 0.5% bovine serum albumin (BSA) in PBS for 30 min to block non-specific binding sites. Cells were incubated in the primary antibody (at concentrations described below) at 4° C. for 1 hr followed by the secondary antibody (FITC-goat anti-mouse IgG, PHARMINGEN, San Diego, Calif.) at 0.5 μg/10^6 cells and incubated at 4° C. for 30 min. The isotype control for these studies was FITC-labeled mouse isotype IgG1 (PHARMINGEN). The cells were analyzed by flow cytometry (FACS Calibur, BECTON DICKINSON, San Jose, Calif.). At least ten thousand cells were analyzed for each sample. […]

[2] = test system: ICAM-1; experiment: Flow cytometry of ICAM-1 expression on HCEC; conditions: for Upregulation of ICAM-1: 1000 ng/ml
Procedure: Flow cytometry was used to assess the upregulation of ICAM-1 and VCAM-1 on HCEC in response to CAP37 treatment. HCEC were cultured as described above and treated with CAP37 (0-2000 ng/ml) for 0, 2, 6, 24, 48 and 72 hr. A corresponding culture was left untreated at each time point. Following treatment with CAP37, cells were detached with 5 mM EDTA (pH 7.4, Fisher Scientific), washed twice in PBS and fixed with 0.125% paraformaldehyde (J.T. Baker, Phillipsburg, N.J.) overnight at 4° C. The cells were washed in PBS and then incubated in 0.5% normal goat serum and 0.5% BSA in PBS for 30 min to block non-specific binding sites. For determination of ICAM-1 expression, cells were incubated in the primary antibody (FITC-labeled mouse anti-human ICAM-1, BIOSOURCE, Camarillo, Calif.) at 10^6 cells/10 μl at 4° C. for 1 hr. Cells were washed in PBS and analyzed by flow cytometry (FACSTAR, BECTON DICKINSON, San Jose, Calif.). For detection of VCAM-1 expression, cells were incubated with unlabeled primary antibody (monoclonal mouse anti human VCAM-1, ENDOGEN, Woburn, Mass. at 2 μg/10^6 cells) followed by FITC-labeled goat anti-mouse IgG (PHARMINGEN, San Diego, Calif.) at 5 μg/10^6 cells and incubated at 4° C. for 30 min. The isotype control for these studies was FITC-labeled mouse isotype IgG1 (PHARMINGEN). The positive control used in these studies was TNF-α (5 ng/ml). At least ten thousand cells were analyzed for each sample.

[3] = test system: α3 (CD49c); experiment: Flow cytometry of integrin expression on HCEC
Procedure: (§1) Flow cytometry was used to assess the upregulation of PECAM-1 (CD31), and the integrin molecules β1 (CD29), β2 (CD18), β3 (CD61), β4 (CD104), α1 (CD49a), α2 (CD49b), α3 (CD49c), α4 (CD 49d), and αv (CD51). Human corneal epithelial cells were cultured as above and treated with CAP37 (0-2000 ng/ml) for 0-72 hr. A corresponding culture was left untreated at each time point. Following treatment with CAP37, cells were detached with 0.25% trypsin in 1 mM EDTA (pH 7.4, FISHER SCIENTIFIC, Pittsburgh, Pa.), washed twice in PBS and fixed with 0.125% paraformaldehyde (J.T. BAKER, Phillipsburg, N.J.) overnight at 4° C. The cells were washed in PBS and then incubated in 0.5% normal goat serum and 0.5% bovine serum albumin (BSA) in PBS for 30 min to block non-specific binding sites. Cells were incubated in the primary antibody (at concentrations described below) at 4° C. for 1 hr followed by the secondary antibody (FITC-goat anti-mouse IgG, PHARMINGEN, San Diego, Calif.) at 0.5 μg/10^6 cells and incubated at 4° C. for 30 min. The isotype control for these studies was FITC-labeled mouse isotype IgG1 (PHARMINGEN). The cells were analyzed by flow cytometry (FACS Calibur, BECTON DICKINSON, San Jose, Calif.). At least ten thousand cells were analyzed for each sample.
(§2) The primary antibodies and the concentrations used in the flow cytometry experiments are as follows: mouse anti-human PECAM-1 (CD31) monoclonal antibody clone HEC7 (0.5 μg/10^6 cells, ENDOGEN, Woburn, Mass.), mouse anti-human very late antigen 1α (VLA-1α, or CD49a) monoclonal antibody clone SR84 (0.5 μg/10^6 cells, PHARMINGEN), mouse anti-human VLA-α2 (CD49b) monoclonal antibody clone AK-7 (0.125 μg/10^6 cells, PHARMINGEN), mouse anti-human α3 (CD49c) monoclonal antibody clone C3II.1 (0.125 μg/10^6 cells, PHARMINGEN), mouse anti-human VLA-4 (α4) monoclonal antibody clone 2B4 (1 μg/10^6 cells, R & D systems, Minneapolis, Minn.), mouse anti human α5 (CD49e) monoclonal antibody clone VC5 (0.125 μg/10^6 cells, PHARMINGEN), mouse anti-human β1 (CD29) monoclonal antibody MAR4 (2 μg/10^6 cells, PHARMINGEN), mouse anti human β2 integrin (CD18) monoclonal antibody clone 6.7 (0.5 μg/10^6 cells, PHARMINGEN), mouse anti human αvβ3 (CD51/CD61) monoclonal antibody clone 23C6 (0.5 μg/10^6 cells, PHARMINGEN), and mouse anti human integrin β4 (CD104) monoclonal antibody clone 450-11A (1.0 μg/10^6 cells, PHARMINGEN). A purified mouse IgG1 κ monoclonal immunoglobulin isotype standard (clone MOPC-31C) was used as the isotype matched control in the flow cytometry experiments.

[4] = test system: α1 (CD49a; VLA-α1); experiment: Flow cytometry of integrin expression on HCEC
Procedure: as §1, §2

[5] = test system: αv β 3 (CD51/CD61); experiment: Flow cytometry of integrin expression on HCEC
Procedure: as §1, §2

[6] = test system: β 4 (CD104); experiment: Flow cytometry of integrin expression on HCEC
Procedure: as §1, §2

[7] = test system: α4 (CD49d); experiment: Flow cytometry of integrin expression on HCEC
Procedure: as §1, §2

[8] = test system: α2 (CD49b; VLA-α2); experiment: Flow cytometry of integrin expression on HCEC
Procedure: as §1, §2

[9] = test system: β 1 (CD29); experiment: Flow cytometry of integrin expression on HCEC
Procedure: as §1, §2

[10] = test system: β 2 (CD18); experiment: Flow cytometry of integrin expression on HCEC
Procedure: as §1, §2

B1: CAP37: Cationic Antimicrobial Protein of Mr 37 kDa; recombinant protein from human 293 cells, identical to native PMN-derived CAP37 (SEQ ID NO:1) (protein, listed as Homo sapiens)
chain: IVGGRKARPRQFPFLASIQNQGRHFCGGALIHARFVMTAASCFQSQNPGVSTVVLGAYDLRRRERQSRQTFSISSMSENGYDPQQNLNDLMLLQLDREANLTSSVTILPLPLQNATVEAGTRCQVAGWGSQRSGGRLSRFPRFVNVTVTPEDQCRPNNVCTGVLTRRGGICNGDGGTPLVCEGLAHGVASFSLGPCGRGPDFFTRVALFRDWIDGVLNNPGP
B1 was tested, and the PECAM-1 protein expression ([1]; 24 hr) was “waned”, the PECAM-1 protein expression ([1]; at 6 hr, maintained through 12 hr) was “Significant protein expression” and the “Upregulation of ICAM-1” value ([2]; 2 hr) was “no upregulation of ICAM-1 could be detected”. For the same molecule, the “Upregulation of ICAM-1” value ([2]; 6 hr) was “significant upregulation of ICAM-1”, the “Upregulation of ICAM-1” value ([2]; 24 hr) was “still above the untreated levels” and the “ICAM-1 levels relative to positive control” value ([2]; 1000-2000 ng/ml, TNF-α 5 ng/ml as positive control) was “comparable to those obtained with the positive control TNF-α”. The “Concentration giving maximum upregulation of ICAM-1” value ([2]; HCEC, 6 hr, flow cytometry) was 1000 to 2000 ng/mL, the ICAM-1 levels ([2]; concentrations between 10 and 500 ng/ml) was “Lower, yet significant levels of ICAM-1” and the CD49c protein levels ([3]; 48 and 72 hr) was “returned back to constitutive levels”. The “Level of CD49c protein expression” value ([3]; 4 hr to 24 hr) was “sustained through 24 hr”, the “Effect of CAP37 on integrin α3 (CD49c)” value ([3]; HCEC, flow cytometry) was “High constitutive expression - significant” and the “Time of initial upregulation of CD49c (α3)” value ([3]; HCEC, flow cytometry) was 4 h. For the same molecule, the “Effect of CAP37 on integrin α1 (CD49a; VLA-α1)” value [4] was “Constitutive expression - no upregulation”, the “Effect of CAP37 on integrin αv β 3 (CD51/CD61)” value [5] was “Low constitutive expression - no upregulation” and the “Effect of CAP37 on integrin β 4 (CD104)” value [6] was “Constitutive expression - no upregulation”. For the same molecule, the “Effect of CAP37 on integrin α4 (CD49d)” value [7] was “Low constitutive expression - no upregulation”, the “Effect of CAP37 on integrin α2 (CD49b; VLA-α2)” value [8] was “Constitutive expression - no upregulation” and the “Upregulation of CD29 (β1)” value ([9]; 6 hr) was “clearly significant”. The “Upregulation of CD29 (β1)” value ([9]; 72 hr) was “still significantly elevated above background constitutive levels”, the “Effect of CAP37 on integrin β 1 (CD29)” value ([9]; HCEC, flow cytometry) was “Constitutive expression - significant upregulation” and the “Effect of CAP37 on integrin β 2 (CD18)” value [10] was “No constitutive expression - no upregulation”.

From patent US7893027B2, “Treatment of ocular wounds and ulcers” (The Board of Regents of the University of Oklahoma, priority 2002, dated 2011)
